Measured values published in the MegaScale stability set (Tsuboyama et al. 2023).

B1: r4_43_TrROS_Hall (parent)
chain: DLVTIKVPLENLEEIKKAAEKAGFKIVSISYDKENKEVTIVIEKKK

Variants of: B1
Test: folding stability dG (cDNA display proteolysis); higher = more stable
Conditions: PBS, room temperature

Variant | folding stability dG [kcal/mol]
DLVTIKVPLENLEEIKKAAEKAGFKIVSISYDKEMKEVTIVIEKKK | 3.93
DLVTIKVPLENLEEIKKAAEKAGFKIVSISYDKETKEVTIVIEKKK | 3.4
DLVTIKVPLENLEEIKKAAEKAGFKIVSISYDKEFKEVTIVIEKKK | 3.5
DLVTIKVPLENLEEIKKAAEKAGFKIVSISYDKEHKEVTIVIEKKK | 3.54
DLVTIKVPLENLEEIKKAAEKAGFKIVSISYDKEAKEVTIVIEKKK | 3.24
DLVTIKVPLENLEEIKKAAEKAGFKIVSISYDKEIKEVTIVIEKKK | 3.52
DLVTIKVPLENLEEIKKAAEKAGFKIVSISYDKEGKEVTIVIEKKK | 3.61
DLVTIKVPLENLEEIKKAAEKAGFKIVSISYDKEVKEVTIVIEKKK | 3.17
DLVTIKVPLENLEEIKKAAEKAGFKIVSISYDKERKEVTIVIEKKK | 3.98
DLVTIKVPLENLEEIKKAAEKAGFKIVSISYDKESKEVTIVIEKKK | 3.55
DLVTIKVPLENLEEIKKAAEKAGFKIVSISYDKEQKEVTIVIEKKK | 3.54
DLVTIKVPLENLEEIKKAAEKAGFKIVSISYDKEWKEVTIVIEKKK | 3.75
DLVTIKVPLENLEEIKKAAEKAGFKIVSISYDKELKEVTIVIEKKK | 3.47
DLVTIKVPLENLEEIKKAAEKAGFKIVSISYDKEDKEVTIVIEKKK | 3.73
DLVTIKVPLENLEEIKKAAEKAGFKIVSISYDKEEKEVTIVIEKKK | 3.47
DLVTIKVPLENLEEIKKAAEKAGFKIVSISYDKEPKEVTIVIEKKK | 3.2
DLVTIKVPLENLEEIKKAAEKAGFKIVSISYDKEKKEVTIVIEKKK | 3.17
DLVTIKVPLENLEEIKKAAEKAGFKIVSISYDKEYKEVTIVIEKKK | 3.72
DLVTIKVPLENLEEIKKAAEKAGFKIVSISYPKENKEVTIVIEKKK | 2.77

Variant | folding stability dG [kcal/mol]
DLVTIKVPLENLEEIKKAAEKAGFKIVSISYMKENKEVTIVIEKKK | 3.48
DLVTIKVPLENLEEIKKAAEKAGFKIVSISYKKENKEVTIVIEKKK | 3.04
DLVTIKVPLENLEEIKKAAEKAGFKIVSISYEKENKEVTIVIEKKK | 3.62
DLVTIKVPLENLEEIKKAAEKAGFKIVSISYFKENKEVTIVIEKKK | 3.67
DLVTIKVPLENLEEIKKAAEKAGFKIVSISYWKENKEVTIVIEKKK | 3.62
DLVTIKVPLENLEEIKKAAEKAGFKIVSISYCKENKEVTIVIEKKK | 3.85
DLVTIKVPLENLEEIKKAAEKAGFKIVSISYYKENKEVTIVIEKKK | 3.65
DLVTIKVPLENLEEIKKAAEKAGFKIVSISYQKENKEVTIVIEKKK | 3.56
DLVTIKVPLENLEEIKKAAEKAGFKIVSISYNKENKEVTIVIEKKK | 4.06
DLVTIKVPLENLEEIKKAAEKAGFKIVSISYIKENKEVTIVIEKKK | 3.39
DLVTIKVPLENLEEIKKAAEKAGFKIVSISYRKENKEVTIVIEKKK | 2.93
DLVTIKVPLENLEEIKKAAEKAGFKIVSISYGKENKEVTIVIEKKK | 3.82
DLVTIKVPLENLEEIKKAAEKAGFKIVSISYAKENKEVTIVIEKKK | 3.54
DLVTIKVPLENLEEIKKAAEKAGFKIVSISYHKENKEVTIVIEKKK | 3.67
DLVTIKVPLENLEEIKKAAEKAGFKIVSISYTKENKEVTIVIEKKK | 3.81
DLVTIKVPLENLEEIKKAAEKAGFKIVSISYLKENKEVTIVIEKKK | 3.21
DLVTIKVPLENLEEIKKAAEKAGFKIVSISYVKENKEVTIVIEKKK | 3.33
DLVTIKVPLENLEEIKKAAEKAGFKIVSISYSKENKEVTIVIEKKK | 4.21
DLVTIKVPLENLEEIKKAAEKAGFKIVSISYDNENKEVTIVIEKKK | 3.74

Variant | folding stability dG [kcal/mol]
DLVTIKVPLENLEEIKKAAEKAGFKIVSISYDWENKEVTIVIEKKK | 3.76
DLVTIKVPLENLEEIKKAAEKAGFKIVSISYDQENKEVTIVIEKKK | 3.83
DLVTIKVPLENLEEIKKAAEKAGFKIVSISYDTENKEVTIVIEKKK | 3.41
DLVTIKVPLENLEEIKKAAEKAGFKIVSISYDVENKEVTIVIEKKK | 3.73
DLVTIKVPLENLEEIKKAAEKAGFKIVSISYDLENKEVTIVIEKKK | 3.8
DLVTIKVPLENLEEIKKAAEKAGFKIVSISYDPENKEVTIVIEKKK | 2.94
DLVTIKVPLENLEEIKKAAEKAGFKIVSISYDYENKEVTIVIEKKK | 3.42
DLVTIKVPLENLEEIKKAAEKAGFKIVSISYDFENKEVTIVIEKKK | 3.61
DLVTIKVPLENLEEIKKAAEKAGFKIVSISYDSENKEVTIVIEKKK | 3.5
DLVTIKVPLENLEEIKKAAEKAGFKIVSISYDMENKEVTIVIEKKK | 3.72
DLVTIKVPLENLEEIKKAAEKAGFKIVSISYDGENKEVTIVIEKKK | 3.28
DLVTIKVPLENLEEIKKAAEKAGFKIVSISYDRENKEVTIVIEKKK | 3.93
DLVTIKVPLENLEEIKKAAEKAGFKIVSISYDAENKEVTIVIEKKK | 3.49
DLVTIKVPLENLEEIKKAAEKAGFKIVSISYDEENKEVTIVIEKKK | 3.43
DLVTIKVPLENLEEIKKAAEKAGFKIVSISYDCENKEVTIVIEKKK | 3.44
DLVTIKVPLENLEEIKKAAEKAGFKIVSISYDIENKEVTIVIEKKK | 3.85
DLVTIKVPLENLEEIKKAAEKAGFKIVSISYDHENKEVTIVIEKKK | 3.73
DLVTIKVPLENLEEIKKAAEKAGFKIVSISYDDENKEVTIVIEKKK | 3.11
